The values below come from paper PMC7954794, “Protein context shapes the specificity of SH3 domain-mediated interactions in vivo” (Nature Communications, 2021).

B1: ABP1 A11A (protein, UniProt P15891 2-592, looked up)
Actin-binding protein: ALEPIDYTTHSREIDAEYLKIVRGSDPDTTWLIISPNAKKEYEPESTGSSFHDFLQLFDETKVQYGLARVSPPGSDVEKIIIIGWCPDSAPLKTRASFAANFAAVANNLFKGYHVQVTARDEDDLDENELLMKISNAAGARYSIQTSSKQQGKASTPPVKKSFTPSKSPAPVSKKEPVKTPSPAPAAKISSRVNDNNDDDDWNEPELKERDFDQAPLKPNQSSYKPIGKIDLQKVIAEEKAKEDPRLVQKPTAAGSKIDPSSDIANLKNESKLKRDSEFNSFLGTTKPPSMTESSLKNDDDKVIKGFRNEKSPAQLWAERKAKQNSGNAETKAEAPKPEVPEDEPEGEPDVKDLKSKFEGLAASEKEEEEMENKFAPPPKKSEPTIISPKPFSKPQEPVKAEEAEQPKTDYKKIGNPLPGMHIEADNEEEPEENDDDWDDDEDEAAQPPLPSRNVASGAPVQKEEPEQEEIAPSLPSRNSIPAPKQEEAPEQAPEEEIEEEAEEAAPQLPSRSSAAPPPPPRRATPEKKPKENPWATAEYDYDAAEDNELTFVENDKIINIEFVDDDWWLGELEKDGSKGLFPSNYVSLGN
modifications: synonymous codon change A11A in SH3
B2: ABP1 D10D (protein, UniProt P15891 2-592, looked up)
Actin-binding protein: B1 Actin-binding protein
modifications: synonymous D10D codon change
B3: ABP1 Y7Y (protein, UniProt P15891 2-592, looked up)
Actin-binding protein: B1 Actin-binding protein
modifications: synonymous codon change Y7Y in SH3
B4: ABP1 Y9Y (protein, UniProt P15891 2-592, looked up)
Actin-binding protein: B1 Actin-binding protein
modifications: synonymous codon change Y9Y
B5: ABP1 V54V (protein, UniProt P15891 2-592, looked up)
Actin-binding protein: B1 Actin-binding protein
modifications: synonymous V54V
B6: ABP1 S55S (protein, UniProt P15891 2-592, looked up)
Actin-binding protein: B1 Actin-binding protein
modifications: synonymous codon change S55S
B7: ABP1 N58N (protein, UniProt P15891 2-592, looked up)
Actin-binding protein: B1 Actin-binding protein
modifications: synonymous codon change N58N
B8: ABP1 G57G (protein, UniProt P15891 2-592, looked up)
Actin-binding protein: B1 Actin-binding protein
modifications: synonymous G57G codon change in SH3 domain
B9: ABP1 D33D (protein, UniProt P15891 2-592, looked up)
Actin-binding protein: B1 Actin-binding protein
modifications: synonymous D33D codon change
B10: ABP1 D34D (protein, UniProt P15891 2-592, looked up)
Actin-binding protein: B1 Actin-binding protein
modifications: synonymous codon change D34D
B11: ABP1 V31V (protein, UniProt P15891 2-592, looked up)
Actin-binding protein: B1 Actin-binding protein
modifications: synonymous codon change V31
B12: ABP1 D32D (protein, UniProt P15891 2-592, looked up)
Actin-binding protein: B1 Actin-binding protein
modifications: synonymous D32D codon change
B13: ABP1 L17L (protein, UniProt P15891 2-592, looked up)
Actin-binding protein: B1 Actin-binding protein
modifications: synonymous codon change L17L in SH3
B14: ABP1 E16E (protein, UniProt P15891 2-592, looked up)
Actin-binding protein: B1 Actin-binding protein
modifications: synonymous codon change E16E
B15: ABP1 N15N (protein, UniProt P15891 2-592, looked up)
Actin-binding protein: B1 Actin-binding protein
modifications: synonymous codon change N15N

One assay has as its system Hua2. In words: Deep mutational scanning of Abp1 SH3, Abp1-Hua2 DHFR-PCA (DMS score). The class given is cell-based, Saccharomyces cerevisiae. The note with it: Abp1-Hua2; frequencies scaled to the synonymous mutation distribution. The gist of the method: (§1)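 Abp1 SH3 variants from NNN codon saturation mutagenesis at all 58 positions were reintegrated genomically in yeast by CRISPR, pooled, and mated with DHFR F[3] prey strains. Diploids underwent two 72 h liquid DHFR-PCA selections at 30 °C, and mutant abundance was read by Illumina sequencing against the pre-selection reference.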
B1: the “hua2sc (DMS score)” value was determined as 0.2975.
On the same count and under the same terms, for B2 the value was -0.2777; for B3, 0.2398.
The same measure, in the same setting: for B4 the value was -0.7456.

Still in this assay, the particulars now being: Abp1-Hua2 DHFR-PCA, DMS score.
For B5, the “hua2sc (frequencies scaled to the synonymous mutation distribution, DMS score)” value is listed as -0.1199.
For B6, the “hua2sc (frequencies scaled to the synonymous mutation distribution, DMS score)” value is recorded as -0.05585.
On to B7, for which the “hua2sc (frequencies scaled to the synonymous mutation distribution, DMS score)” value is listed as -0.8159.
B8: the “hua2sc (frequencies scaled to the synonymous mutation distribution, DMS score)” value is recorded as -0.4468.

Still in this assay, the particulars now being: Abp1-Hua2 DHFR-PCA, MTX2.
As to B5, the “HUA2_MTX2 (frequencies normalized to the reference condition)” value is listed as 1.4929.
The same measure, in the same setting: for B6 the value was 1.557; for B7, 0.7969.
The same measure, in the same setting: for B8 the value was 1.166.

The assay is the same for the next values; noted with them: Abp1-Hua2 DHFR-PCA, MTX2; DMS score scaled to the synonymous mutation distribution.
With B9, the “hua2sc (frequencies scaled to the synonymous mutation distribution, DMS score)” value was 0.4122.
Still for that read-out and setting: for B10 the value was -0.3883; for B11, -0.7307; for B12, -0.3604.

The same assay, now with this note: Abp1-Hua2 DHFR-PCA, MTX2; normalized to the reference condition.
Take B9: the “HUA2_MTX2 (frequencies normalized to the reference condition)” value came to 2.025.
Still for that read-out and setting: for B10 the value was 1.224; for B11, 0.882; for B12, 1.252.

The assay is the same for the next values; noted with them: Abp1 SH3 DMS; Abp1-Hua2 DHFR-PCA, MTX2; frequencies normalized to the reference condition.
B1: the “HUA2_MTX2 (frequency normalized to the reference condition)” value is listed as 1.91.
On the same count and under the same terms, for B2 the value was 1.335; for B3, 1.853.
Still for that read-out and setting: for B4 the value was 0.8672.

The same assay, now with this note: Frequencies scaled to the synonymous mutation distribution (DMS score); Hua2.
Take B13: the “hua2sc (DMS score)” value is listed as -0.5458.
Still for that read-out and setting: for B14 the value was 0.3666; for B15, -0.2193.

Staying with this assay, now noted: frequencies normalized to the reference condition; Abp1-Hua2, MTX2.
In turn, B13 gave an HUA2_MTX2 of 1.067.
Same read-out and setting: for B14 the value was 1.979; for B15, 1.393.

Another assay has as its system Hua2 and Lsb3. Briefly: Classification of Abp1 SH3 mutants by DMS scores with Hua2 and Lsb3 (quadrant). The format is cell-based, Saccharomyces cerevisiae. To be noted: class by DMS scores with Hua2 and Lsb3 (Dest. both, Dest. Hua2, Dest. Lsb3, Neutral).
B9: the quadrant result was “Neutral”.
For B10, the quadrant result is given as “Neutral”.
Same read-out and setting: for B11 the value was “Neutral”.
As to B12, the quadrant entry is on record as “Neutral”.

In a further assay the test system is Hua2 and Lsb3. Briefly: Quadrant classification of Abp1 SH3 variants from DMS scores (Abp1-Hua2 and Abp1-Lsb3 DHFR-PCA). The class given is cell-based, Saccharomyces cerevisiae. The note with it: class by effect on Hua2 and Lsb3 PPIs (Dest. both / Dest. Hua2 / Dest. Lsb3 / Neutral).
With B13, the quadrant result was “Neutral”.
Still for that read-out and setting: for B14 the value was “Neutral”.
Same read-out and setting: for B15 the value was “Neutral”.

Another assay has as its system Lsb3. In words: Deep mutational scanning of Abp1 SH3, Abp1-Lsb3 DHFR-PCA (DMS score). The note with it: Abp1-Lsb3; frequencies scaled to the synonymous mutation distribution. The class given is cell-based, Saccharomyces cerevisiae. The essentials:
as §1
As for B1, the “lsb3sc (DMS score)” value is on record as 0.4621.
As to B2, the “lsb3sc (DMS score)” value is 0.006531.
On to B3, for which the “lsb3sc (DMS score)” value was -0.04736.
On the same count and under the same terms, for B4 the value was -0.3936.

The assay is the same for the next values; noted with them: Abp1-Lsb3 DHFR-PCA, DMS score.
For B5, the “lsb3sc (frequencies scaled to the synonymous mutation distribution, DMS score)” value is -0.8004.
Take B6: the “lsb3sc (frequencies scaled to the synonymous mutation distribution, DMS score)” value was found to be 0.2461.
Same read-out and setting: for B7 the value was -0.6649.
Same read-out and setting: for B8 the value was -0.3559.

The assay is the same for the next values; noted with them: Abp1-Lsb3 DHFR-PCA, MTX2.
As to B5, the “LSB3_MTX2 (frequencies normalized to the reference condition)” value amounted to 0.6999.
Take B6: the “LSB3_MTX2 (frequencies normalized to the reference condition)” value worked out at 1.746.
B7: the “LSB3_MTX2 (frequencies normalized to the reference condition)” value stood at 0.8354.
The same measure, in the same setting: for B8 the value was 1.1444.

Staying with this assay, now noted: Abp1-Lsb3 DHFR-PCA, MTX2; DMS score scaled to the synonymous mutation distribution.
Consider B9, for which the “lsb3sc (frequencies scaled to the synonymous mutation distribution, DMS score)” value was 0.1943.
Still for that read-out and setting: for B10 the value was -0.3576.
Still for that read-out and setting: for B11 the value was -0.4906.
On to B12, for which the “lsb3sc (frequencies scaled to the synonymous mutation distribution, DMS score)” value was -0.4014.

Still in this assay, the particulars now being: Abp1-Lsb3 DHFR-PCA, MTX2; normalized to the reference condition.
In the case of B9, the “LSB3_MTX2 (frequencies normalized to the reference condition)” value worked out at 1.695.
Same read-out and setting: for B10 the value was 1.143.
With B11, the “LSB3_MTX2 (frequencies normalized to the reference condition)” value is recorded as 1.01.
Take B12: the “LSB3_MTX2 (frequencies normalized to the reference condition)” value turned out to be 1.099.

Staying with this assay, now noted: Abp1 SH3 DMS; Abp1-Lsb3 DHFR-PCA, MTX2; frequencies normalized to the reference condition.
Turning to B1, the “LSB3_MTX2 (frequency normalized to the reference condition)” value is given as 1.962.
With B2, the “LSB3_MTX2 (frequency normalized to the reference condition)” value stood at 1.507.
Regarding B3, the “LSB3_MTX2 (frequency normalized to the reference condition)” value came to 1.453.
Same read-out and setting: for B4 the value was 1.1067.

Staying with this assay, now noted: Frequencies scaled to the synonymous mutation distribution (DMS score); Lsb3.
As to B13, the “lsb3sc (DMS score)” value is -0.4377.
Same read-out and setting: for B14 the value was 0.1832; for B15, 0.1386.

Staying with this assay, now noted: frequencies normalized to the reference condition; Abp1-Lsb3, MTX2.
Turning to B13, the LSB3_MTX2 is on record as 1.063.
The same measure, in the same setting: for B14 the value was 1.684; for B15, 1.639.

The subject of a further assay is Hua2 and Lsb3. In words: Classification of Abp1 SH3 mutations by effect on Hua2 and Lsb3 DMS scores (quadrant). The format is cell-based, Saccharomyces cerevisiae. The note with it: class of mutation by Hua2 and Lsb3 DMS scores (Dest. both, Dest. Hua2, Dest. Lsb3, Neutral).
Consider B1, for which the quadrant entry was “Neutral”.
Same read-out and setting: for B2 the value was “Neutral”.
Same read-out and setting: for B3 the value was “Neutral”; for B4, “Neutral”.

In a further assay the test system is Hua2 and Lsb3 (Abp1-Hua2 and Abp1-Lsb3 PPIs). Briefly: Deep mutational scanning of Abp1 SH3, quadrant classification from Hua2 and Lsb3 DMS scores. The class given is cell-based, Saccharomyces cerevisiae. The note with it: class from DMS scores for Hua2 and Lsb3.
On to B5, for which the quadrant result is reported as “Neutral”.
For the molecule B6, the quadrant entry is reported as “Neutral”.
The same measure, in the same setting: for B7 the value was “Neutral”; for B8, “Neutral”.
